Reference: paper PMC8304084, “A Concerted Action of UBA5 C-Terminal Unstructured Regions Is Important for Transfer of Activated UFM1 to UFC1” (International Journal of Molecular Sciences, 2021)
Where two headings read alike, the source gives them in different places.

Tests used:
[1] = biological target: T1, UFC1 (Homo sapiens, UniProt Q9Y3C8); assay: ITC, UBA5 constructs vs UFC1; assay type: binding; settings: for N: ITC stoichiometry; for N / ΔG / ΔS / −T*ΔS / KA*10^−6 / Kd: UFC1 titrated to full length UBA5; for N / ΔH / KA*10^−6: ± = fitting error; for ΔG / ΔS / −T*ΔS / ΔH / KA*10^−6 / Kd: ITC, 25 °C; for ΔH: UFC1 titrated to full length UBA5 (FL^1–404 or FL^1–404 C250K~UFM1), single profile; for ΔH / Kd: 25 mM HEPES pH 7.5, 100 mM NaCl; for KA*10^−6: value is KA × 10^−6; for Kd: VP-ITC, one-site model, single ITC profile
T1 construct: Full length UFC1, residues 1–167; modified ubiquitin tag (Ub19) with TEV site (N, cleaved yes); made in house; host or cells: E. coli T7 Express
T1 sequence (Q9Y3C8 1-167): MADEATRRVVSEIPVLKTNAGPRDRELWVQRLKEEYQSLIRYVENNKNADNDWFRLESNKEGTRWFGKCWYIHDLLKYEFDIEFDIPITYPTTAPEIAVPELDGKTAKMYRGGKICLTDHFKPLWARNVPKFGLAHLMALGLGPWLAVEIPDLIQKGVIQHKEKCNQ
Excerpt: To understand how the UBA5 C-terminus participates in the ufmylation cascade, we performed isothermal titration calorimetry (ITC) experiments, in which we titrated UBA5 C-terminal peptides (see Table 1) to the UBA5 AD, UFC1, UFM1 and representative LC3/GABARAP proteins (Figure 2A, Supplementary Figure S2A–D and Table 2).
To investigate if conjugation of UFM1 to the UBA5 catalytic cysteine (C250) affects the UFC1:UBA5 interactions, we prepared full length UBA5 C250K mutant and stably conjugated UFM1 to it as reported before for a number of ubiquitin-specific E2 enzymes. We compared the UFC1 spectra after addition of a twofold molar excess of FL^1–404 and FL^1–404 C250K~UFM1 constructs (Supplementary Figure S5C).
All proteins and peptides were expressed in E.Coli T7 Express (New England Biolabs GmbH, Frankfurt, Germany) cells in LB or M9 (to obtain ^15N- and ^13C,^15N-labeled polypeptides) media according to the protocol described in [33, 36]. For protein purification, bacterial cell pellets were resuspended in lysis buffer (50 mM Tris-HCl pH = 7.5, 100 mM NaCl, 5% glycerol, 5 mM PIC (protease inhibitor cocktail)) and lysed via sonication (TT13 Sonotrode, 40% amplitude, for 6 × 1 min with a 0.5/0.5-s pulse). Lysates were centrifuged for 45 min at 17,000× g at 4 °C. Supernatants were loaded onto a His Trap Fast Flow 5 mL column (GE Healthcare, München, Germany) equilibrated in loading buffer (50 mM Tris-HCl pH = 8.0, 250 mM NaCl, 1% glycerol, 20 mM imidazole). The column was washed with loading buffer for 5–10 CV and protein was eluted with elution buffer (50 mM Tris-HCl pH = 8, 250 mM NaCl, 1% glycerol, 400 mM imidazole). Simultaneous TEV cleavage (1 mg TEV protease was added to 100 mg peptides/proteins) and buffer exchange to loading buffer via dialysis was performed over night at 4 °C. After reverse IMAC, proteins were concentrated with conical concentrators (Millipore Merck, Darmstadt, Germany) and loaded on a Superdex 10/60 75 or 200 column (GE Healthcare, München, Germany) for further purification and equilibration with ITC/NMR buffer (25 mM HEPES pH = 7.5, 100 mM NaCl). For structural NMR spectroscopy, buffer containing 50 mM Tris-HCl pH = 7.5, 100 mM NaCl was used. Prior to NMR experiments, TCEP and protease inhibitors cocktail were added to the samples to final concentrations 1 and 5 mM, respectively. Purified peptides and protein were concentrated and stored at −80 °C. The protein and peptide concentrations were calculated from the UV absorption at 280 nm by Nanodrop spectrophotometer (Thermo Scientific, Langenselbold, Germany).
All ITC experiments were performed at 25 °C using a VP-ITC microcalorimeter (Malvern Panalytical Ltd., Malvern, UK). Peptides in concentration of ~400 µM were titrated into 20–25 µM solutions of corresponding binding partner at a stirring speed of 307 rpm. The raw data were corrected on the dilution heat of peptides obtained in independent experiment (titration of the peptide in syringe into the ITC/NMR buffer in the measuring cell). Pre-titration delay was set to 180 s, interval between titration steps was experimentally adjusted to avoid kinetic contribution to the observed heat effects and set to 200 s. A single ITC profile was collected for each type of interaction. The ITC data were analyzed based on a “one-site” binding model with MicroCal ITC software implemented in Origin 7.0.

[2] = biological target: T1, UFC1; assay: In vitro thioester formation (ufmylation) assay, UFC1~UFM1 conjugate; assay type: biochemical
Protocol: First, we analyzed the effect of the UBA5 C-terminus on UFM1 transfer to UFC1 with an in vitro thioester formation assay (Figure 1B–E).
Ufmylation reaction assays were adopted from work of Xie. Briefly, 70 µM UFM1, 20 µM UFC1 and 20 µM of different UBA5 constructs were mixed in reaction buffer (50 mM HEPES pH = 7.5, 100 mM NaCl, 5 mM MgCl2). After starting the reaction with addition of 1 mM ATP, the reaction mix was incubated at 22 °C for the desired time. To quench the reaction and prepare electrophoretic samples, 1 µL of the reaction mix was added to 99 µL 1x non-reducing SDS loading buffer and frozen in liquid nitrogen. Sample content was visualized by sodium dodecyl sulfate polyacrylamide gel electrophoresis (SDS-PAGE). The transfer to polyvinylidene difluoride (PVDF) membrane was performed via a Trans-Blot® Turbo™ Transfer System (Bio-Rad, München, Germany). After transfer the membrane was blocked with TBST (Tris-buffered saline with Tween20 buffer, 20 mM Tris, 150 mM NaCl and 0.1% TWEEN 20) containing 5% w/v nonfat dry milk for 1 h, followed by α-UFC1 antibody incubation over night at 4 °C (ab189251 abcam, 1:10,000 in TBST containing 5% w/v nonfat dry milk). After washing with TBST the membrane was incubated with secondary antibody (anti-rabbit-HRP) for 1 h at RT and again washed with TBST. Detection was performed by addition of ECL solution. For quantification of UFC1 ufmylation coloc2 software implemented in ImageJ was used.

[3] = biological target: T1, UFC1; assay: NMR titration with UFC1; assay type: binding; settings: [15N,1H] TROSY-HSQC, 25 °C
Protocol: To understand the role of the UBA5 C-terminal region in coordination of the binding events reported above on the molecular level, we performed NMR titration experiments. […] It seems, that these UBA5 residues form additional interactions with UFC1.
All NMR experiments were performed at a sample temperature of 25 °C on Bruker 600, 700, 800, 900, and 950 MHz spectrometers equipped with cryogenic probes, and a 500 MHz spectrometer equipped with a room-temperature triple-resonance probe. All NMR spectra were analyzed with the Sparky 3.114 software (University of California, San Francisco, USA). For NMR titration experiments, the non-labeled UBA5 peptides were titrated to 100 µM ^13C,^15N-labeled UFC1 to a final molar ratio of 1:8 (UFC1:UBA5 peptide). Conversely, 100 µM ^13C,^15N-labeled UBA5 peptides were titrated with non-labeled UFC1 to a final molar ratio 1:4 (UBA5 peptide:UFC1). 2D ^1H-^15N correlation spectra ([^15N,^1H] TROSY-HSQC) were recorded at each titration point. The same types of spectra were recorded to estimate binding of ^13C,^15N-labeled UFC1 (75 µM) to non-labeled UBA5, UBA5~UFM1 and UFM1 at 1:2 molar ratios. CSP values, Δδ, were calculated for each individual amide group using the formula Δδ = [(ΔδN/5)^2 + Δδ^2HN)]^1/2.

[4] = test system: UFM1, UFC1; settings: cited from earlier work
Excerpt: The role of this region is not understood, and no interacting proteins could be identified so far. […] Ufmylation is essential for embryonic development. The A371T mutation was described previously to be present in patients suffering from severe infantile-onset encephalopathy. […] Our ITC experiments with C-terminal UBA5 peptides containing the A371T or its phosphomimicking A371E mutations (loca ...

[5] = biological target: T2, UFM1 (Homo sapiens, UniProt P61960); assay: Gel filtration and electrophoresis of UBA5 C250K~UFM1 conjugates with excess UFM1; assay type: binding; settings: gel filtration, Superdex 200 10/300, 4 times molar excess of UFM1, electrophoretic analysis
T2 construct: Full length UFM1, residues 2–83; modified ubiquitin tag (Ub19) with TEV site (N, cleaved yes); made in house; host or cells: E. coli T7 Express
Excerpt: Figure 4 Interaction studies between full length UBA5 and UFC1 proteins. (A) Gel electrophoresis of ufmylation assays including UBA5 FL^1–404 (left plot) and UBA5 ΔR3^1–380. (B) UFC1 binding to full length UBA5 (left plot) and full length stable UBA5~UFM1 conjugate (right plot) observed by ITC experiments. […] KD values are indicated. (C) Gel-filtration profiles of the FL^1–404 C250K~UFM1 conjugates in presence of 4 times molar excess of UFM1 (red lines) and UFC1 (black lines). The peak subjected to electrophoretic analysis is indicated by an asterisk. (D) Scheme of reactions involving UBA5 in the ufmylation cascade. The structures of UBA5 AD (brown), UFM1 (cyan) and UFC1 (grey) are represented as ribbon diagrams; the UBA5 unstructured C-terminus containing regions R1 (orange), R2 (green) and R3 (violet) is shown as dashed lines. The structures were generated from PDB entry 5IAA [29]. * indicates regions of another UBA5 molecule involved in the in trans transfer of UFM1.
For stable UBA5~UFM1 conjugation, 70 µM UFM1, 20 µM FL^1–404 C250K and 1 mM ATP were added to ufmylation reaction buffer (50 mM HEPES […], 100 mM NaCl, 5 mM MgCl2). For NMR analysis, resulting complexes were concentrated and equilibrated with ITC/NMR buffer. To analyze complex formation by ufmylation assay 300 µL of sample were loaded onto a Superdex 200 10/300 column (GE Healthcare, München, Germany).

T2 sequence (P61960 2-83): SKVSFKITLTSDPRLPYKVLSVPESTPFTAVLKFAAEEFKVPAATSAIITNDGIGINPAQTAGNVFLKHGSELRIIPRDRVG

Substance | N [1] | ΔG [1] [kcal/mol] | ΔS [1] [cal mol^−1 K^−1] | −T*ΔS [1] [kcal/mol] | ΔH [1] [kcal/mol] | KA*10^−6 [1] [M^−1] | Kd [1] [nM] | UFC1 conjugated to UFM1 (UFC1~UFM1) ([2]; within 30 min, 70 µM UFM1, 20 µM UFC1, 20 µM UBA5 construct, 1 mM ATP, 50 mM HEPES pH 7.5, 22 °C, Western blot, triplicates) | interaction with UFC1 (in words) [3] | effect of UBA5 A371T mutation on UFM1 activation / transfer [4] | effect of UBA5 A371T mutation on UFM1 activation / transfer ([4]; listed as A371T mutation) | non-conjugated UFM1 in conjugate peak [5] | UFM1 transfer to UFC1, ΔR3^1–380 vs FL^1–404 (in words) ([2]; reactions started with 25 µM ATP)
FL^1–404: Full length UBA5, residues 1–404 | 0.97 ± 0.009 | -8.00 | 1.26 | -0.38 | -7.62 ± 0.01 | 0.72 ± 0.04 | 1400 | ~ 90% | did not observe significant CSPs (shift or disappearance of the UFC1 resonances) in comparison to the spectra of the UFC1:R3^381–404W complex | – | – | – | –
UBA5 A371T mutant: A371T mutation in the human UBA5 protein, literature | – | – | – | – | – | – | – | – | – | slightly reduced UBA5 thioester conjugation with UFM1 and reduced enzymatic activity in trans-thioesterification of UFC1 | decreases the ability of UBA5 to activate UFM1, to transfer the activated UFM1 to UFC1 and to mediate UFBP1~UFM1 formation | – | –
FL^1–404 C250K~UFM1: full length UBA5 C250K mutant with UFM1 stably conjugated to it | 1.03 ± 0.009 | -8.10 | −0.34 | 0.10 | -8.21 ± 0.01 | 0.87 ± 0.05 | 1200 | – | no significant enhancement of the UBA5:UFC1 interaction | – | – | contains non-conjugated UFM1 | –
ΔR3^1–380: UBA5 with deleted R3 region, residues 1–380 | – | – | – | – | – | – | – | – | did not interact with UFC1 | – | – | – | significantly slowed down UFM1 transfer to UFC1
